For assay [1], the target named is TRBC1 polypeptide (form not stated, target of the affinity printed for scFv C1) (UniProt P01850 1-149, limits assumed). As to the kind of experiment: not stated; column head 'Affinity' in the table of scFv sequences.
Assay [2] concerns the target T1, TRBC2 (T cell receptor β chain constant region 2) on HPB-ALL cells (human, UniProt A0A5B9 1-178).
T1 construct: whole, on cells; This is the constant region of the TCR β chain carried by the cell's own rearranged TCR; also called TRBC2 polypeptide
The assay can be described thus: flow cytometry on HPB-ALL cells (express TRBC2). Background: In flow cytometry, cells or beads pass a laser one at a time.

In assay [3] the target is T2, TRBC1 (T cell receptor β chain constant region 1) on Jurkat cells and TRBC1^+ healthy human T cells (human, UniProt P01850 1-176).
T2 construct: whole, on cells; This is the constant region of the TCR β chain carried by the cell's own rearranged TCR; The rest of the TCR is not specified; also called TRBC1 polypeptide
T2 sequence (P01850 whole entry): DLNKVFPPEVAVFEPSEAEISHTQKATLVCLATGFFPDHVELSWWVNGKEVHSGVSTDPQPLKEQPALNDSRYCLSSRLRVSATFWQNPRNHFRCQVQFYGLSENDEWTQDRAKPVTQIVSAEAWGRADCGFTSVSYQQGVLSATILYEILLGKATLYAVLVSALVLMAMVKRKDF
The assay can be described thus: flow cytometry on Jurkat cells and healthy human T cells.

Assay [4] addresses CD3 polypeptide (form not stated, target of the affinity printed for scFv UCHT1.v9) (UniProt P07766 23-126). As to the kind of experiment: not stated; column head 'Affinity' in the table of scFv sequences.

The text below walks through data of patent US20240124608A1 (Johns Hopkins, published 2024).

T1 sequence (A0A5B9 whole entry): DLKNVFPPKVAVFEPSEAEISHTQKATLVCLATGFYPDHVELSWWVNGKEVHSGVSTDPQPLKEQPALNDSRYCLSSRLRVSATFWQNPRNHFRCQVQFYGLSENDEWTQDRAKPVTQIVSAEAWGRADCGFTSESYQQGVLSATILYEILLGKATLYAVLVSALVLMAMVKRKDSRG
Sequence of CD3 polypeptide (form not stated, target of the affinity printed for scFv UCHT1.v9) (P07766 23-126): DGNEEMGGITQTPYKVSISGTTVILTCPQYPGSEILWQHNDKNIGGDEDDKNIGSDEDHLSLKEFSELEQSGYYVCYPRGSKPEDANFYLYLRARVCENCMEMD
Sequence of TRBC1 polypeptide (form not stated, target of the affinity printed for scFv C1) (P01850 1-149 limits assumed): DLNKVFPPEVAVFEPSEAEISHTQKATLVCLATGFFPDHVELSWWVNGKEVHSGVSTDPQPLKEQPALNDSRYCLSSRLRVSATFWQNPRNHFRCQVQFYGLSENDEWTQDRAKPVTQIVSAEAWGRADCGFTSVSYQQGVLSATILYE

B1: anti-TRBC1 scFv C1 (Jovi-1) (scFv, V domains shown)
VH: EVRLQQSGPDLIKPGASVKMSCKASGYTFTGYVMHWVKQRPGQGLEWIGFINPYNDDIQSNERFRGKATLTSDKSSTTAYMELSSLTSEDSAVYYCARGAGYNFDGAYRFFDFWGQGTTLTVSS
VL: DVVMTQSPLSLPVSLGDQASISCRSSQRLVHSNGNTYLHWYLQKPGQSPKLLIYRVSNRFPGVPDRFSGSGSGTDFTLKISRVEAEDLGIYFCSQSTHVPYTFGGGTKLEIKR
notes: also called αTRBC1 scFv
One may read the Kd as the constant that tells how readily two partners part at equilibrium. Low readings indicate a tighter complex, high ones a looser complex. As for B1, the equilibrium dissociation constant (Kd) in assay [1] turned out to be 0.4 nM.

B2: TRBC1-TRBC1 #3 bispecific antibody (bispecific antibody, V domains shown)
VH: EVRLQQSGPDLIKPGASVKMSCKASGYTFTGYVMHWVKQRPGQGLEWIGFINPYNDDIQSNERFRGKATLTSDKSSTTAYMELSSLTSEDSAVYYCARGAGYNFDGAYRFFDFWGQGTTLTVSS
VL: DVVMTQSPLSLPVSLGDQASISCRSSQRLVHSNGNTYLHWYLQKPGQSPKLLIYRVSNRFPGVPDRFSGSGSGTDFTLKISRVEAEDLGIYFCSQSTHVPYTFGGGTKLEIKR
notes: A single polypeptide made by linking two anti-TRBC1 scFvs, with G4S and (G4S)3 linkers and a poly-histidine tail; also called anti-C1 #3
Consider B2, for which the binding result in assay [2] is “no binding”.

B3: TRBC1-CD3 bispecific antibody (bispecific antibody, V domains shown)
VL 1: DVVMTQSPLSLPVSLGDQASISCRSSQRLVHSNGNTYLHWYLQKPGQSPKLLIYRVSNRFPGVPDRFSGSGSGTDFTLKISRVEAEDLGIYFCSQSTHVPYTFGGGTKLEIKR
VH 1: EVRLQQSGPDLIKPGASVKMSCKASGYTFTGYVMHWVKQRPGQGLEWIGFINPYNDDIQSNERFRGKATLTSDKSSTTAYMELSSLTSEDSAVYYCARGAGYNFDGAYRFFDFWGQGTTLTVSS
VL 2: DIQMTQSPSSLSASVGDRVTITCRASQDIRNYLNWYQQKPGKAPKLLIYYTSRLESGVPSRFSGSGSGTDYTLTISSLQPEDFATYYCQQGNTLPWTFGQGTKVEIK
VH 2: EVQLVESGGGLVQPGGSLRLSCAASGYSFTGYTMNWVRQAPGKGLEWVALINPYKGVSTYNQKFKDRFTISVDKSKNTAYLQMNSLRAEDTAVYYCARSGYYGDSDWYFDVWGQGTLVTVSS
notes: It was nickel purified, so a His tag is implied; also called αC1-CD3; anti-C1-CD3
As for B3, the binding result in assay [3] is “binds”.

B4: TRBC1-TRBC1 #4 bispecific antibody (bispecific antibody, V domains shown)
VH: EVRLQQSGPDLIKPGASVKMSCKASGYTFTGYVMHWVKQRPGQGLEWIGFINPYNDDIQSNERFRGKATLTSDKSSTTAYMELSSLTSEDSAVYYCARGAGYNFDGAYRFFDFWGQGTTLTVSS
VL: DVVMTQSPLSLPVSLGDQASISCRSSQRLVHSNGNTYLHWYLQKPGQSPKLLIYRVSNRFPGVPDRFSGSGSGTDFTLKISRVEAEDLGIYFCSQSTHVPYTFGGGTKLEIKR
notes: A single polypeptide made by linking two anti-TRBC1 scFvs, with G4S and (G4S)3 linkers and a poly-histidine tail; also called anti-C1 #4
Take B4: the binding result in assay [2] is recorded as “no binding”.

B5: anti-CD3 scFv UCHT1.v9 (scFv, V domains shown)
VH: EVQLVESGGGLVQPGGSLRLSCAASGYSFTGYTMNWVRQAPGKGLEWVALINPYKGVSTYNQKFKDRFTISVDKSKNTAYLQMNSLRAEDTAVYYCARSGYYGDSDWYFDVWGQGTLVTVSS
VL: DIQMTQSPSSLSASVGDRVTITCRASQDIRNYLNWYQQKPGKAPKLLIYYTSRLESGVPSRFSGSGSGTDYTLTISSLQPEDFATYYCQQGNTLPWTFGQGTKVEIK
notes: also called αCD3 scFv
For the molecule B5, in assay [4], the affinity, expressed as Kd, was 4.7 nM.
